Test results: the RNAGym collection of RNA variant scans (doi:10.1073/pnas.2313332121)

B1: TPR t1 (parent)
chain: GACCAAUCUGCCCUCAGAGCUCGAGAACAUCUUCGGAUGCAGAGGAGGCAGGCUUCGGUGGCGCGAUAGCGCCAACGUCCUCAACCUCCAAUGCAUCCCACCACAUGAUGAUGCCUGAAGAGCCUUGGUUUUUUG

Variants of: B1
Assay: polymerase ribozyme fitness, log enrichment relative to wild type (log ratio); higher = more active; in vitro selection for triplet polymerase activity
Method in brief: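 The heterodimeric triplet polymerase ribozyme's subunits were each mutagenized into PCR-built libraries and transcribed. Every library was selected once, in triplicate, by annealing with a biotinylated primer, the partner subunit and triplets, incubating frozen at −7 °C, gel-excising extended constructs, capturing on streptavidin beads and running RT-PCR. Input and output libraries were Illumina-sequenced, with genotypes kept only at ≥10 input reads and ≥1 read per output. Fitness, from inverse-variance-weighted replicate averages, is the base-2 logarithm of genotype enrichment over wild-type enrichment.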

| Variant | polymerase ribozyme fitness (log ratio) |
| --- | --- |
| C3G C8G C12U C79U G110C U130A | -5.96 |
| C3G C11A G36C C64U | -3.94 |
| C3G C11G C97G C114A | -4.68 |
| C3G C11G G19U G63A G120A | -5.7 |
| C3G C11U C97A G120C | -5.66 |
| C3G C12G | -0.885 |
| C3G C12G C53A G61U C114G | -5.41 |
| C3G C12G C62U | -2.34 |
| C3G C13U C56A | -2.3 |
| C3G C15A C22G C115U | -4.4 |
| C3G C22A G69A C124G G128C | -4.83 |
| C3G C40G C72U A121G U130G | -0.331 |
| C3G C49A G57U C64U G120U G128U | -1.81 |
| C3G C49G | -3.17 |
| C3G C49U U78A C115A | -3.75 |
| C3G C56U U92G C123A | -3.5 |
| C3G C72G | -2.06 |
| C3G C97U | -2.53 |
| C3G C102A | -4.71 |
| C3G C102U C123A | -2.99 |
| C3G G17A G120C | -5.46 |

| Variant | polymerase ribozyme fitness (log ratio) |
| --- | --- |
| C3G G36U C79U C89G C123G U133G | -3.18 |
| C3G G42C G44U G63U C123A G128C | -3.73 |
| C3G G44U G45U C89A C94U A111U C123U U129C G135A | -4.23 |
| C3G G47C G52A U87A C124G | -4.41 |
| C3G G47U G48C C82G C123U | -1.92 |
| C3G G48C U87G U130C | -1.16 |
| C3G G60C | -1.74 |
| C3G G60C C86A | -2.81 |
| C3G G60U U87A | -2.32 |
| C3G G128C | -0.539 |
| C3G U7G C15U U55G C56U G128U | -1.45 |
| C3G U9C C13A C70G C89A U96C C101A G117C | -5.88 |
| C3G U55C C72U G93A | -4.63 |
| C3U A5G C34U G61C C62G C94U U109A C115U | -6.29 |
| C3U A6C U55C | -1.74 |
| C3U A6U C20G A37U C72U C82U G113A A119C U129C U133A | -5.44 |
| C3U A6U G52U A111U A118U | -4.02 |
| C3U A16C G17A U54C U78C A90C | -2.6 |
| C3U A16U G71A | -2.38 |
| C3U A18U C89U G120C G122U | -3.19 |
| C3U A27G G135U | -5.83 |

| Variant | polymerase ribozyme fitness (log ratio) |
| --- | --- |
| C3U A29U U109A | 0.179 |
| C3U A41G C102A G120A | -3.46 |
| C3U A43C C73A U87G | -2.3 |
| C3U A43U C56G U81A A95U A111G G122A | -5.71 |
| C3U A50C A74C U96G | -1.84 |
| C3U A50G U55G G63A | -1.45 |
| C3U A83U | -0.257 |
| C3U A91U G93C G113C G135U | -3.84 |
| C3U A119G | 0.367 |
| C3U C4A C53G C88U A90C C123A U130C | -0.356 |
| C3U C8G G10U G45C G71U C85A | -2.2 |
| C3U C11A C73G A75U C99G A103U A121G | -7.22 |
| C3U C11A U78A | -2.75 |
| C3U C11G C12A A50U C56G A83U G93C G113U | -5.9 |
| C3U C11G C12A A50U C56G G113U | -6.33 |
| C3U C11U C13G G63C U116C | -4.43 |
| C3U C11U G48A C56U C89G C101U | -3.51 |
| C3U C12U A46G A50G C101A C104U | -0.987 |
| C3U C13G A90U | -1.11 |
| C3U C13U A41G G61U C79A C85U G120U G127C | -3.54 |
| C3U C13U C34U G69U C85U | -2.76 |

| Variant | polymerase ribozyme fitness (log ratio) |
| --- | --- |
| C3U C13U G57U C79U A100C | -0.594 |
| C3U C13U U59A | -0.207 |
| C3U C15A G52C | -3.65 |
| C3U C15U G39C | -2.34 |
| C3U C22A A74U G77A U106C C114A | -4.34 |
| C3U C22A U54C C72U C79U C82U A100U | -6.11 |
| C3U C34A C53A C79U C88U C97U | -2.66 |
| C3U C34A C73A | -2.99 |
| C3U C40G G63C C115U | -2.66 |
| C3U C40U G60U | 0.0261 |
| C3U C49A G63A C80U G93A | -5.66 |
| C3U C53A C56A G69U | -0.204 |
| C3U C53G C88A U112G U129A | -2.53 |
| C3U C56G | -0.409 |
| C3U C56G C73U | -1.31 |
| C3U C56U C115U G127U | -3.57 |
| C3U C56U G69C C76G C115U G127U | -4.79 |
| C3U C62A C72U | -0.819 |
| C3U C62U A74U C89G | -2.26 |
| C3U C70A U78C A91C C97G A121U | -6.74 |
| C3U C72A | -0.325 |
